Results reported in patent EP0785948B1.

Target: KGF receptor (membrane preparations from Balb/MK mouse epidermal keratinocytes) (mouse) (UniProt P21803)
Assay: radioreceptor competition against 125I-labeled E. coli KGF, Balb/MK membrane preparations

Chain of KGF receptor (membrane preparations from Balb/MK mouse epidermal keratinocytes) (mouse) (P21803 22-821): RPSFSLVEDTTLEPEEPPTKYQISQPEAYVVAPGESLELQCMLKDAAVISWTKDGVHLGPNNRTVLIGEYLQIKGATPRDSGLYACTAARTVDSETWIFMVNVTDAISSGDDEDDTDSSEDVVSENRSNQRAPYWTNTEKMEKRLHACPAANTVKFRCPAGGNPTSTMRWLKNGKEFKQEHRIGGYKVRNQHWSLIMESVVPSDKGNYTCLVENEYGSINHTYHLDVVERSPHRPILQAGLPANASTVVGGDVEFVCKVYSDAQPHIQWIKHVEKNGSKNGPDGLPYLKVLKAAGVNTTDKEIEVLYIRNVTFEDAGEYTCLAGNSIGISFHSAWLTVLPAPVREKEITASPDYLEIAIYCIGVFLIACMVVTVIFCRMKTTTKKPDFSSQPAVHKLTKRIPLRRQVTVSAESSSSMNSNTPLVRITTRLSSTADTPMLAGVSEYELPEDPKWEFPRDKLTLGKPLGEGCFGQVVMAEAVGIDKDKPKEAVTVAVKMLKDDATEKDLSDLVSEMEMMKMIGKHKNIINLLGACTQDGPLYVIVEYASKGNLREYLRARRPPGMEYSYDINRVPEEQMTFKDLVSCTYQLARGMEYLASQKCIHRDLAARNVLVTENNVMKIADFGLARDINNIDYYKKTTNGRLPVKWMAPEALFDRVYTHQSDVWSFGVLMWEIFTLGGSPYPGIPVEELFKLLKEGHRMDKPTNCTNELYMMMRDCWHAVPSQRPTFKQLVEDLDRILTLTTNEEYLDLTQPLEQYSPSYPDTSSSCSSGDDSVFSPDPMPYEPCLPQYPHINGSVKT

KGF concentration to compete receptor binding with I^125-labeled KGF at 60% uncompetition rate [ng/mL]	Substance
89.1	KGF-b (CHO-derived N-terminally truncated unglycosylated KGF, about 17 kDa, cleaved at Arg23-Ser24) (ligand)
93.5	KGF-a (CHO-derived glycosylated recombinant KGF, 25-29 kDa form) (ligand)
65.8	E. coli-derived, full-length native KGF (keratinocyte growth factor) (ligand)
